Reference: PMC6373145

Biological target: T1, recombinant GST-tagged human occludin (human), Q16625
T1 chain: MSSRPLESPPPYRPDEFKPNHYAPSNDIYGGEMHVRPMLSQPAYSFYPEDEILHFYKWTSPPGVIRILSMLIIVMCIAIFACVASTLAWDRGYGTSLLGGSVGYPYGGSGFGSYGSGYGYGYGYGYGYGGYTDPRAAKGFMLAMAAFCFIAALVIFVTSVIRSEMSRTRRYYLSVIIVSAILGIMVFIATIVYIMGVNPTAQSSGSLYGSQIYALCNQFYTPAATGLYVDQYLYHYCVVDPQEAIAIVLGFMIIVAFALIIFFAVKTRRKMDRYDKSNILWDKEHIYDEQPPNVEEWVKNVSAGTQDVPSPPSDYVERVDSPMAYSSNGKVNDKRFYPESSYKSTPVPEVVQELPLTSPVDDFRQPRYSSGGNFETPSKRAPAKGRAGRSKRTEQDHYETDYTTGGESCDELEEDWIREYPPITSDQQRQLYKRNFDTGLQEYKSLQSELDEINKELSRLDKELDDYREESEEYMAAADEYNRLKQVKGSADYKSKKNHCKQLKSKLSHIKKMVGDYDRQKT
Assay: SDS-PAGE and immunoblot; recombinant GST-occludin in 50 mM HEPES pH 7.4, 16 h at 37 °C, with or without purified HtrA; 12% SDS-PAGE, blots with α-occludin H-279 and α-GST
Conditions: remark: other sources report otherwise

- stoichiometry N: 2
B1: recombinant GST-tagged human occludin, Q16625 1-522 (natural protein)
chain: T1 chain
